According to PMC6386588 (Molecular cell, 2019):

Molecular target: H-Ras protein: His tagged: human wild type (MST) (human, UniProt P01112 1-189)
Test: MST

Chain of H-Ras protein: His tagged: human wild type (MST) (P01112 whole entry): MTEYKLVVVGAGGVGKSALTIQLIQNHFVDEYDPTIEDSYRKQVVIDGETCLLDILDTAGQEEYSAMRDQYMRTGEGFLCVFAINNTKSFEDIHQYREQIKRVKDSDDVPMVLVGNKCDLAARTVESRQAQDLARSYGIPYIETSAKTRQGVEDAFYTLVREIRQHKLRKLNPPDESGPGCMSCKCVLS

B1: FHH:MAPKAP1^RBD (AA279-353) (domain or fragment, UniProt Q9BPZ7 279-353, looked up)
chain: LFVRINAAHGFSLIQVDNTKVTMKEILLKAVKRRKGSQKVSGPQYRLEKQSEPNVAVDLDSTLESQSAWEFCLVR
modifications: RED-tris-NTA dye on the His tag (Monolith His-Tag Labeling Kit)
- binding result: binds
